What was measured:
P1aABDΔ22 = experiment: ITC
[1] = biological target: actin binding domain of plectin isoform 1a (P1aABD); experiment: ITC
[2] = biological target: C-terminally CFP-tagged P1aABD (P1aABD-CFP); experiment: FRET or BRET

| Kd (P1aABDΔ22) [µM] | KD calculated with the competitive binding model [1] [µM] | Kd [1] [µM] | apparent KD in the presence of β4Fn12 (displacement) [1] [µM] | FRET efficiency [2] [%] | Substance |
| --- | --- | --- | --- | --- | --- |
| 2.6 | 2.3 | 4.2 | 7.7 |  | calmodulin (CaM), full length, with Ca2+ (from UniProt P0DP23 1-149) (natural protein) |
|  |  | 10.5 |  |  | N-ter lobe of calmodulin (CaMNL) (from UniProt P0DP23 10-74) (domain or fragment) |
|  |  |  |  | 19 | C-terminally yellow fluorescence protein (YFP)-tagged CaM (CaM-YFP) (from UniProt P0DP23 1-149) (natural protein) |

From publication PMC4353693
